Laboratory results as given in article PMC4601532 (Science (New York, N.Y.), 2015).

B1: Vps34 (vacuolar protein sorting 34), subunit of complex II (enzyme)
chain: LNNITFCVSQDLDVPLKVKIKSLEGHKPLLKPSQKILNPELMLIGSNVFPSSDLIVSLQVFDKERNRNLTLPIYTPYIPFRNSRTWDYWLTLPIRIKQLTFSSHLRIILWEYNGSKQIPFFNLETSIFNLKDCTLKRGFESLKFRYDVIDHCEVVTDNKDQENLNKYFQGEFTRLPWLDEITISKLRKQRENRTWPQGTFVLNLEFPMLELPVVFIEREIMNTQMNIPTLKNNPGLSTDLREPNRNDPQIKISLGDKYHSTLKFYDPDQPNNDPIEEKYRRLERASKNANLDKQVKPDIKKRDYLNKIINYPPGTKLTAHEKGSIWKYRYYLMNNKKALTKLLQSTNLREESERVEVLELMDSWAEIDIDDALELLGSTFKNLSVRSYAVNRLKKASDKELELYLLQLVEAVCFENLSTFSDKSNSEFTIVDAVSSQKLSGDSMLLSTSHANQKLLKSISSESETSGTESLPIVISPLAEFLIRRALVNPRLGSFFYWYLKSESEDKPYLDQILSSFWSRLDKKSRNILNDQVRLINVLRECCETIKRLKDTTAKKMELLVHLLETKVRPLVKVRPIALPLDPDVLICDVCPETSKVFKSSLSPLKITFKTTLNQPYHLMFKVGDDLRQDQLVVQIISLMNELLKNENVDLKLTPYKILATGPQEGAIEFIPNDTLASILSKYHGILGYLKLHYPDENATLGVQGWVLDNFVKSCAGYCVITYILGVGDRHLDNLLVTPDGHFFHADFGYILGQDPKPFPPLMKLPPQIIEAFGGAESSNYDKFRSYCFVAYSILRRNAGLILNLFELMKTSNIPDIRIDPNGAILRVRERFNLNMSEEDATVHFQNLINDSVNALLPIVIDHLHNLAQYWRT
B2: Vps38, subunit of complex II (natural protein)
chain: MKRFLLSRRQRHLRMICFHNISLFRANGDSKLIKEYGDGFIPCFFILESIRGELLYVSEVQSGSLRKLSFQELPKLTGASTMIVLKLVGLVPSDILCTISSDKNGIIDDKWCVLCTYTIDLNKLQPINEDTVLITGTNAPVLDLIDGSYTLAAEKIKPLKGLVSSHKRNISQVKIKFSLAYSSLLKLNKLLEYSSQVHEEINEISSKIEDDFLSLKNQNHWYMRTVQKSIETLEKEVLQRKKSKKNIEMAQLESNDTINHSKTELSLMSQDESINDDYGSIYSRFVQIKDRLDQLRFKKLYQLIGIFHSTDLFNSDRGYIYFEKPSSVNDVINRLKLKPLNIEILLRQAGESTKHREYVNSQLGYYLLFLHLTAIQIFKAPLPYRLMYYGSTSVIDSQYPLYFTDQMISKHQAKLIKAIHYFNADILQFKQILENYRPT
B3: Vps30/ZZ-Vps38 heterodimer held on IgG beads (complex)
chain 1: MKCQTCHLPLQLDPSLEGLSLTQRNLLLSNNSIITATNENVISNKGIEAADNCGPQIPKERLRRLGEIQNIKDLNLKDDKLITDSFVFLNHDDDDNANITSNSREDQRYGNANGNDNKKANSDTSDGTSTFRDHDEEEQEATDEDENQQIQLNSKTLSTQVNAMTNVFNILSSQTNIDFPICQDCCNILINRLKSEYDDAIKERDTYAQFLSKLESQNKEISESNKEKQYSHNLSEKENLKKEEERLLDQLLRLEMTDDDLDGELVRLQEKKVQLENEKLQKLSDQNLMDLNNIQFNKNLQSLKLQYELSLNQLDKLRKINIFNATFKISHSGPFATINGLRLGSIPESVVPWKEINAALGQLILLLATINKNLKINLVDYELQPMGSFSKIKKRMVNSVEYNNSTTNAPGDWLILPVYYDENFNLGRIFRKETKFDKSLETTLEIISEITRQLSTIASSYSSQTLTTSQDESSMNNANDVENSTSILELPYIMNKDKINGLSVKLHGSSPNLEWTTAMKFLLTNVKWLLAFSSNLLSKSITLSPTVNYNDKTISGN
chain 2: B2 chain
B4: Vps30/Atg6, subunit of complex II (natural protein)
chain: B3 chain 1

Tests used:
[1] = molecular target: Vps38-C2 with CC1 region (Saccharomyces cerevisiae); assay: SEC-MALS
[2] = molecular target: B2; assay: SEC-MALS
[3] = molecular target: B4; assay: SEC-MALS
[4] = molecular target: T1, Vps15, subunit of complex II (Saccharomyces cerevisiae, UniProt P22219 1-1454); assay: SEC-MALS
T1 sequence: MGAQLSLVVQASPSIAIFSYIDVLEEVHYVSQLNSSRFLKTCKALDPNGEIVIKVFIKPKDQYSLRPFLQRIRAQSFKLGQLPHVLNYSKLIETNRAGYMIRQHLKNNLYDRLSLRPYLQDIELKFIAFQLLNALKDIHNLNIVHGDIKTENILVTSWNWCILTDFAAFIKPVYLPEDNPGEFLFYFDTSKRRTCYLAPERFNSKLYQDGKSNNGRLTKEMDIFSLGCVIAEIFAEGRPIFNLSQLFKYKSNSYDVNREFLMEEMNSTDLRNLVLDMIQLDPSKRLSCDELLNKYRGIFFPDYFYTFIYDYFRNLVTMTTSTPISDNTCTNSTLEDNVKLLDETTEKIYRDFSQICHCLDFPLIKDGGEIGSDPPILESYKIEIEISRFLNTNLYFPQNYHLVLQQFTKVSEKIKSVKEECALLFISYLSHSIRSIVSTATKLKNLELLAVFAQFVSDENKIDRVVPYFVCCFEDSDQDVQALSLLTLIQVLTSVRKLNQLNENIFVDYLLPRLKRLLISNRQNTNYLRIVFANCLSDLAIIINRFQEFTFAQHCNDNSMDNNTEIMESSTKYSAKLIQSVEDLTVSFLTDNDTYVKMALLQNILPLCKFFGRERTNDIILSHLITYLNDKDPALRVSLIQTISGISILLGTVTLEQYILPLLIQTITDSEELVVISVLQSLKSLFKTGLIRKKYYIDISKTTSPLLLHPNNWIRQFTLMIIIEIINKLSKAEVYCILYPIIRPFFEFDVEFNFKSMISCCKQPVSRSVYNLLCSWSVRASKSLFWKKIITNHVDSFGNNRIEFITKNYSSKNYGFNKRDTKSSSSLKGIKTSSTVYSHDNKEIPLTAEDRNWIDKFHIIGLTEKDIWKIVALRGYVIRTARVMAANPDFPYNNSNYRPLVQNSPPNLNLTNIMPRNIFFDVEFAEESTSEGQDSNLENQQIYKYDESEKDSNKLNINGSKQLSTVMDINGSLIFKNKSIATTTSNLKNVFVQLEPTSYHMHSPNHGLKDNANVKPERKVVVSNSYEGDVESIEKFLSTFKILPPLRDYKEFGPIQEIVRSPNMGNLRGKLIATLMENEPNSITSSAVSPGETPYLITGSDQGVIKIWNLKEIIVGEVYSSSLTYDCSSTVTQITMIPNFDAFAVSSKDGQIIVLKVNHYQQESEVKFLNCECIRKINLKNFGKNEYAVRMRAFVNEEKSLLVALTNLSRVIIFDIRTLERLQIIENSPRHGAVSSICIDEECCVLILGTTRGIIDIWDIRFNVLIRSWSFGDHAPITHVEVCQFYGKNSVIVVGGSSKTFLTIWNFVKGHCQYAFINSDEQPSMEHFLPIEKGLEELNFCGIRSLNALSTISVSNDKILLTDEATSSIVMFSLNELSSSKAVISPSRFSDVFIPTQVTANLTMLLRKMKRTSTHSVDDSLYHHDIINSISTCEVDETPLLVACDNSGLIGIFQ

[5] = molecular target: B1; assay: crystal structure
[6] = molecular target: B4; assay: crystal structure
[7] = molecular target: Saccharomyces cerevisiae Vps15/Vps34 heterodimer (Saccharomyces cerevisiae, UniProt P22219;P22543); assay: pull-down

Vps30-NTD with CC1 region (domain or fragment)
stoichiometry N [1]: 1

B1
stoichiometry N [2]: 1 | stoichiometry N [3]: 1 | stoichiometry N [4]: 1

B2
binding result [5]: binds | binding result [6]: binds | stoichiometry N [4]: 1

B3
binding result [7]: binds

B4
binding result [5]: binds | stoichiometry N [2]: 1 | stoichiometry N [4]: 1
